Molecular target: purified catalytic subunit of cAMP-dependent protein kinase (PKA)
Assay: kinetic analysis of PKA phosphorylation of ARPP-21 at 0-15 uM phospho-Thr75 DARPP-32; Lineweaver-Burk and secondary plot, competitive inhibition

B1: phospho-Thr75 DARPP-32 (other)
chain: MDPKDRKKIQFSVPAPPSQLDPRQVEMIRRRRPTPAMLFRLSEHSSPEEEASPHQRASGEGHHLKSKRPNPCAYTPPSLKAVQRIAESHLQSISNLNENQASEEEDELGELRELGYPREEDEEEEEDDEEEEEEEDSQAEVLKVIRQSAGQKTTRGLGLEGPWERPPPLDESERDGGSEDQVEDPALSEPGEEPQRPSPSEPGR
Work on B1 yielded a Ki of 2700 nM.

Source: patent publication US6989362 (ROCKEFELLER UNIVERSITY, dated 2006)
